Results from patent US6187552A, “Method for identifying inhibitors of JAK2/cytokine receptor binding” (Pharmacia & Upjohn Company, priority 1998, dated 2001).

Columns and labels:
[1] = biological target: T1, human JAK2 (Homo sapiens, UniProt O60674); experiment: SPA: binding of 3H-JAK2 to βc peptides on streptavidin-coated beads; conditions: JAK2 from 32.5 nM to 16.25 nM; FIG. 14
T1 construct: NJAK2 = N-terminal 294 residues
Protocol: Cells were lysed by dounce homogenization (20 strokes) in 1X phosphate buffered saline (PBS), pH 7.5 at 4 C. […] For some experiments, the JAK2 protein (0.15 mg/ml), aliquoted into 7 equivalent tubes, was then subjected to ultracentrifugation in an Airfuge using an A-110 rotor at an average of 164,000×g for a period of 6 hours at ambient temperature. At zero time, and at each subsequent hour thereafter, a tube of JAK2 was removed for analyses (ELISA, SDS polyacrylamide gel electrophoresis, and Western blotting).
Three different labeling reactions were done using ^3 H-N-succinimidyl propionate (^3 H-NSP, Amersham Life Sciences, Arlington Heights, Ill.). One reaction was done using 0.5 mg of purified JAK2 in 0.1 M borate buffer, pH 8.5, with a reaction volume of 150 μl and an incubation time of one hour on ice with dried 1 mCi of ^3 H-NSP (toluene was removed using a stream of nitrogen). […] Another reaction was done using the buffer 0.1 M sodium phosphate, pH 8.0, and a similar volume as before. One milligram of JAK2 in 1.2 ml of phosphate buffer was incubated for three hours on ice. […]
Triplicate reactions were done for each data point. […] The plates were then read on a MicroBeta (Wallac) set to read scintillation due to tritium.
Either ^3 H-JAK2 or ^3 H-NJAK2 was added to the wells and, after incubation, the signals measured. […]

[2] = test system: peptide 4 (βc peptide) bound to SPA beads; experiment: SPA competition: unlabeled JAK2 against labeled JAK2/NJAK2 for peptide 4 bound to SPA beads; type: binding, human
[3] = JAK2 remaining soluble after ultracentrifugation (ELISA) / aggregation; type: physicochemical
Protocol: Recombinant JAK2 protein containing the Flag affinity label ([…]) [SEQ ID NO:20] was expressed in either SF9 or HI-5 cells as described. Cells were lysed by dounce homogenization (20 strokes) in 1X phosphate buffered saline (PBS), pH 7.5 at 4 C. Clarified extract was passed through an anti-Flag immunoaffinity column (Kodak, New Haven, Conn.) and purified recombinant JAK2 was eluted by competition with a solution of Flag peptide at a concentration of 250 ug/ml in 1×PBS. Purity was characterized by a single band on SDS polyacrylamide gels. For some experiments, the JAK2 protein (0.15 mg/ml), aliquoted into 7 equivalent tubes, was then subjected to ultracentrifugation in an Airfuge using an A-110 rotor at an average of 164,000×g for a period of 6 hours at ambient temperature. At zero time, and at each subsequent hour thereafter, a tube of JAK2 was removed for analyses (ELISA, SDS polyacrylamide gel electrophoresis, and Western blotting).
Aliquots of the above supernatants were removed and subjected to an ELISA assay. Each solution was diluted 1:50 with 0.1M sodium carbonate, pH 9.0, and applied in multiple concentrations to a 96 well plate. After an overnight incubation, each well was washed with 0.1% BSA in 1×PBS, pH 7.5 (wash buffer), followed by continued incubation for an additional hour at 4 C. The wells were then incubated with 150 ul of C20 anti-JAK2 antibody (Santa Cruz Biotechnology, Santa Cruz, Calif.) in wash buffer for 1 hour at 4 C., followed by extensive washes with wash buffer. Secondary antibody (150 ul of alkaline phosphatase labeled goat anti-rabbit IgG (Promega, Madison, Wis.) at a dilution of 1:2000) was applied for 1 hour at 4 C., followed by extensive washes with buffer. Finally, wells were incubated with 0.1 M Tris HCl, 5 mM MgCl2, pH 9.5, and then with the same buffer (150 ul) containing 5 mg/ml p-nitrophenylphosphate (pNPP). Color formation was read by a SpectraMax 250 plate reader set at an absorbance of 405 nm. The linear phase of each concentration curve was chosen for each of the time points (0,1,2,3,4,5,and 6 hours of ultracentrifugation) in order to calculate the relative amount of recombinant JAK2 remaining in the supernatant of each fraction.
To see whether more highly aggregated JAK2 could be separated by ultracentifugation from less aggregated or monomeric JAK2, a sample of freshly purified JAK2 at a defined concentration was centrifuged in an airfuge as described in Materials and Methods. Samples were taken at 7 different time points over a 6 hour period to assess the amount of JAK2 which remained in the supernatant phase. After 1 hour at 164,000×g, 40 to 50% of the original JAK2 was detected, a value which remained relatively constant for up to 5 additional hours in this experiment. […] Since the supernatant was removed from below the meniscus by pipetting, a determination of the molecular weight could not be established in this experiment.

Row | Molecule | signal obtained on lowering final JAK2 concentration [1] | competition of labeled JAK2 binding ([2]; 5-fold excess unlabeled JAK2, peptide 4) | competition of labeled NJAK2 binding ([2]; 10-fold excess unlabeled JAK2, peptide 4) | % JAK2 Remaining ([3]; 0 hours ultracentrifugation) | % JAK2 Remaining ([3]; 1 hour ultracentrifugation, 164,000×g) | % JAK2 Remaining ([3]; 2 hours ultracentrifugation, 164,000×g) | % JAK2 Remaining ([3]; 3 hours ultracentrifugation, 164,000×g) | % JAK2 Remaining ([3]; 4 hours ultracentrifugation, 164,000×g) | % JAK2 Remaining ([3]; 5 hours ultracentrifugation, 164,000×g) | % JAK2 Remaining ([3]; 6 hours ultracentrifugation, 164,000×g) | original JAK2 detected in supernatant ([3]; after 1 hour at 164,000×g, relatively constant up to 5 additional hours) | JAK2 remaining soluble as defined by ELISA ([3]; after ultracentrifugation) | aggregation by size exclusion chromatography ([3]; data not shown) | apparent Kd versus more aggregated JAK2 ([2]; inferred from competition of supernatant, FIG. 18) | competition with labeled JAK2 versus starting material ([2]; supernatant after ultracentrifugation, peptide 4 on beads, FIG. 18)
1 | JAK2: Recombinant JAK2 protein containing the Flag affinity label, expressed in SF9 or HI-5 cells (protein, Flag tag) MACLTMTEMEGTSTSSIYQNGDISGNANSMKQIDPVLQVYLYHSLGKSEADYLTFPSGEYVAEEICIAASKACGITPVYHNMFALMSETERIWYPPNHVFHIDESTRHNVLYRIRFYFPRWYCSGSNRAYRHGISRGAEAPLLDDFVMSYLFAQWRHDFVHGWIKVPVTHETQEECLGMAVLDMMRIAKENDQTPLAIYNSISYKTFLPKCIRAKIQDYHILTRKRIRYRFRRFIQQFSQCKATARNLKLKYLINLETLQSAFYTEKFEVKEPGSGPSGEEIFATIIITGNGGIQWSRGKHKESETLTEQDLQLYCDFPNIIDVSIKQANQEGSNESRVVTIHKQDGKNLEIELSSLREALSFVSLIDGYYRLTADAHHYLCKEVAPPAVLENIQSNCHGPISMDFAISKLKKAGNQTGLYVLRCSPKDFNKYFLTFAVERENVIEYKHCLITKNENEEYNLSGTKKNFSSLKDLLNCYQMETVRSDNIIFQFTKCCPPKPKDKSNLLVFRTNGVSDVPTSPTLQRPTHMNQMVFHKIRNEDLIFNESLGQGTFTKIFKGVRREVGDYGQLHETEVLLKVLDKAHRNYSESFFEAASMMSKLSHKHLVLNYGVCVCGDENILVQEFVKFGSLDTYLKKNKNCINILWKLEVAKQLAWAMHFLEENTLIHGNVCAKNILLIREEDRKTGNPPFIKLSDPGISITVLPKDILQERIPWVPPECIENPKNLNLATDKWSFGTTLWEICSGGDKPLSALDSQRKLQFYEDRHQLPAPKWAELANLINNCMDYEPDFRPSFRAIIRDLNSLFTPDYELLTENDMLPNMRIGALGFSGAFEDRDPTQFEERHLKFLQQLGKGNFGSVEMCRYDPLQDNTGEVVAVKKLQHSTEEHLRDFEREIEILKSLQHDNIVKYKGVCYSAGRRNLKLIMEYLPYGSLRDYLQKHKERIDHIKLLQYTSQICKGMEYLGTKRYIHRDLATRNILVENENRVKIGDFGLTKVLPQDKEYYKVKEPGESPIFWYAPESLTESKFSVASDVWSFGVVLYELFTYIEKSKSPPAEFMRMIGNDKQGQMIVFHLIELLKNNGRLPRPDGCPDEIYMIMTECWNNNVNQRPSFRDLALRVDQIRDNMAGDYKDDDDKN | decreases significantly | competed significantly | reduced almost to background | 100% | 46.0% | 39.6% | 32.5% | 43.7% | 44.1% | 41.3% | 40 to 50% | 50% | exhibited degrees of aggregation |  | 
2 | JAK2 from the supernatant: supernatant after 1 hour of ultracentrifugation of JAK2 (protein, UniProt O60674 1-1132, looked up) Tyrosine-protein kinase JAK2: MGMACLTMTEMEGTSTSSIYQNGDISGNANSMKQIDPVLQVYLYHSLGKSEADYLTFPSGEYVAEEICIAASKACGITPVYHNMFALMSETERIWYPPNHVFHIDESTRHNVLYRIRFYFPRWYCSGSNRAYRHGISRGAEAPLLDDFVMSYLFAQWRHDFVHGWIKVPVTHETQEECLGMAVLDMMRIAKENDQTPLAIYNSISYKTFLPKCIRAKIQDYHILTRKRIRYRFRRFIQQFSQCKATARNLKLKYLINLETLQSAFYTEKFEVKEPGSGPSGEEIFATIIITGNGGIQWSRGKHKESETLTEQDLQLYCDFPNIIDVSIKQANQEGSNESRVVTIHKQDGKNLEIELSSLREALSFVSLIDGYYRLTADAHHYLCKEVAPPAVLENIQSNCHGPISMDFAISKLKKAGNQTGLYVLRCSPKDFNKYFLTFAVERENVIEYKHCLITKNENEEYNLSGTKKNFSSLKDLLNCYQMETVRSDNIIFQFTKCCPPKPKDKSNLLVFRTNGVSDVPTSPTLQRPTHMNQMVFHKIRNEDLIFNESLGQGTFTKIFKGVRREVGDYGQLHETEVLLKVLDKAHRNYSESFFEAASMMSKLSHKHLVLNYGVCVCGDENILVQEFVKFGSLDTYLKKNKNCINILWKLEVAKQLAWAMHFLEENTLIHGNVCAKNILLIREEDRKTGNPPFIKLSDPGISITVLPKDILQERIPWVPPECIENPKNLNLATDKWSFGTTLWEICSGGDKPLSALDSQRKLQFYEDRHQLPAPKWAELANLINNCMDYEPDFRPSFRAIIRDLNSLFTPDYELLTENDMLPNMRIGALGFSGAFEDRDPTQFEERHLKFLQQLGKGNFGSVEMCRYDPLQDNTGEVVAVKKLQHSTEEHLRDFEREIEILKSLQHDNIVKYKGVCYSAGRRNLKLIMEYLPYGSLRDYLQKHKERIDHIKLLQYTSQICKGMEYLGTKRYIHRDLATRNILVENENRVKIGDFGLTKVLPQDKEYYKVKEPGESPIFWYAPESLTESKFSVASDVWSFGVVLYELFTYIEKSKSPPAEFMRMIGNDKQGQMIVFHLIELLKNNGRLPRPDGCPDEIYMIMTECWNNNVNQRPSFRDLALRVDQIRDNMAG |  |  |  |  |  |  |  |  |  |  |  |  |  | higher apparent Kd than the more aggregated JAK2 | competed less effectively than the starting material
